This note sets out measurements from patent publication US7122636.

The target in the assay is recombinant human IL-8, (ser-IL-8)72 (human, UniProt P10145 28-99). Briefly: inhibition of 125I-IL-8 binding to neutrophils.

B1: humanized 6G425 F(ab)-9 (humanized 6G4V11 Fab) (Fab, V domains shown)
VH: EVQLVQSGGGLVQPGGSLRLSCAASGYSFSSHYMHWVRQAPGKGLEWVGYIDPSNGETTYNQKFKGRFTLSRDNSKNTAYLQMNSLRAEDTAVYYCARGDYRYNGDWFFDVWGQGTLVTVSS
VL: DIQMTQSPSSLSASVGDRVTITCRSSQSLVHGIGNTYLHWYQQKPGKAPKLLIYKVSNRFSGVPSRFSGSGSGTDFTLTISSLQPEDFATYYCSQSTHVPLTFGQGTKVEIKR
Turning to B1, the IC50 was 4.9 nM.
